Laboratory results reported in FireProtDB (doi:10.1016/j.jmb.2003.08.024).

B1: Ribonuclease, P00648 (parent)
chain: MMKMEGIALKKRLSWISVCLLVLVSAAGMLFSTAAKTETSSHKAHTEAQVINTFDGVADYLQTYHKLPDNYITKSEAQALGWVASKGNLADVAPGKSIGGDIFSNREGKLPGKSGRTWREADINYTSGFRNSDRILYSSDWLIYKTTDHYQTFTKIR

Variants of: B1
Details: Bacillus amyloliquefaciens, GdnHCl, Hydrogen exchange, HCl 27.5 mM, reversible: yes, structure 1BNI, whole UniProt chain shown

S132C H149C
ddG of mutation (higher = less stable) (pH 7.5, 25 °C, Imidazole 50 mM): -18 kJ/mol
denaturant m value (pH 7.5, 25 °C, Imidazole 50 mM): 4.91 kcal/mol/M
ddG of mutation (higher = less stable) (pH 7.6, 37 °C, Imidazole 50 mM): -19.2 kJ/mol
denaturant m value (pH 7.6, 37 °C, Imidazole 50 mM): 4.91 kcal/mol/M
ddG of mutation (higher = less stable) (pH 7.9, 37 °C, Tris 50 mM): -18.8 kJ/mol
denaturant m value (pH 7.9, 37 °C, Tris 50 mM): 4.91 kcal/mol/M

A90C S127C
ddG of mutation (higher = less stable) (pH 7.5, 25 °C, Imidazole 50 mM): -7.95 kJ/mol
denaturant m value (pH 7.5, 25 °C, Imidazole 50 mM): 4.91 kcal/mol/M
ddG of mutation (higher = less stable) (pH 7.6, 37 °C, Imidazole 50 mM): -7.95 kJ/mol
denaturant m value (pH 7.6, 37 °C, Imidazole 50 mM): 4.91 kcal/mol/M
ddG of mutation (higher = less stable) (pH 7.9, 37 °C, Tris 50 mM): -7.53 kJ/mol
denaturant m value (pH 7.9, 37 °C, Tris 50 mM): 4.91 kcal/mol/M

N105A
ddG of mutation (higher = less stable) (pH 6.8, 30 °C, Imidazole 50 mM): 7.53 kJ/mol
denaturant m value (pH 6.8, 30 °C, Imidazole 50 mM): 4.91 kcal/mol/M

S138A
ddG of mutation (higher = less stable) (pH 6.8, 30 °C, Imidazole 50 mM): 7.53 kJ/mol
denaturant m value (pH 6.8, 30 °C, Imidazole 50 mM): 4.91 kcal/mol/M
